Laboratory results published in patent US20170368136A1 (REGENTS OF THE UNIVERSITY OF COLORADO A BODY CORPORATE, published 2017).

Molecular target: CaMKII
Assay: cell-based or functional assay

Sequence of CaMKII (chain, from a related filing, as listed by the source): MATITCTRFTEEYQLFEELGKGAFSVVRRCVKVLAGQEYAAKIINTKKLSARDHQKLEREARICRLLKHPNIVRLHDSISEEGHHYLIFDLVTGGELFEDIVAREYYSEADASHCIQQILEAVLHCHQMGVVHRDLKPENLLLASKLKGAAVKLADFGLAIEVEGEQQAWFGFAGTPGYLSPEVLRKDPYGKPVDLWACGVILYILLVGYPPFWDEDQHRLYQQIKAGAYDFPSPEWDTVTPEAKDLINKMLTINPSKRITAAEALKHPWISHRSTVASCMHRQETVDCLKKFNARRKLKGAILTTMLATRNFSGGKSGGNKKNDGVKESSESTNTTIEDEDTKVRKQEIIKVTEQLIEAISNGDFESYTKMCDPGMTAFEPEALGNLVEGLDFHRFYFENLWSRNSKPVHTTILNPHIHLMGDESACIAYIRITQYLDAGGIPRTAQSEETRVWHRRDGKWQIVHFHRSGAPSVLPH

KRPPKLGQIGASKRVVIED [CN19 R11A]
fold reduction of potency of CaMKII inhibition against CN19: > 3 fold

KRAPKLGQIGRQKAVVIED [CN19a2v V12Q]
IC50 of CaMKII inhibition: ~1 nM

KRAPKLGQIGRQKAVDIED [CN19o]
IC50 of CaMKII inhibition (CaMKII activity assay, 0.1 nM CaMKII): ~0.75 nM | fold potency of CaMKII inhibition against CN19: > 125 fold

KRPPKLGQIGRSKRVVIED [CN19]
IC50, phosphorylation of syntide 2 by CaMKII: ~100 nM

KRPPKLGQIGRSKRVVIEDD [CN20]
IC50, phosphorylation of syntide 2 by CaMKII: ~100 nM

KRAPKLGQIGRVKAVDIED [CN19a2v V16D]
IC50 of CaMKII inhibition: ~1 nM

KRPPKLGQIGRSKAVVIED [CN19 R14A]
fold increase of potency of CaMKII inhibition against CN19 wild type: > 10 fold

KRAPKLGQIGRVKAVVIED [CN19a2v]
IC50 of CaMKII inhibition (syntide 2): ~20 nM | fold potency of CaMKII inhibition against CN19: ~5 fold

KRPPKLGQIGRAKRVVIED [CN19 S12A]
fold decrease of potency of CaMKII inhibition against CN19: > 3 fold
